Data as given in publication PMC2120989 (The Journal of Cell Biology, 1996).
Values belong to the binder of their own block, whether it stands above or below them.

What was measured:
[1] = molecular target: T1, recombinant full-length (His)6-tagged Xenopus beta-catenin (Xenopus, UniProt P26233 1-781); experiment: co-IP
T1 sequence (looked up): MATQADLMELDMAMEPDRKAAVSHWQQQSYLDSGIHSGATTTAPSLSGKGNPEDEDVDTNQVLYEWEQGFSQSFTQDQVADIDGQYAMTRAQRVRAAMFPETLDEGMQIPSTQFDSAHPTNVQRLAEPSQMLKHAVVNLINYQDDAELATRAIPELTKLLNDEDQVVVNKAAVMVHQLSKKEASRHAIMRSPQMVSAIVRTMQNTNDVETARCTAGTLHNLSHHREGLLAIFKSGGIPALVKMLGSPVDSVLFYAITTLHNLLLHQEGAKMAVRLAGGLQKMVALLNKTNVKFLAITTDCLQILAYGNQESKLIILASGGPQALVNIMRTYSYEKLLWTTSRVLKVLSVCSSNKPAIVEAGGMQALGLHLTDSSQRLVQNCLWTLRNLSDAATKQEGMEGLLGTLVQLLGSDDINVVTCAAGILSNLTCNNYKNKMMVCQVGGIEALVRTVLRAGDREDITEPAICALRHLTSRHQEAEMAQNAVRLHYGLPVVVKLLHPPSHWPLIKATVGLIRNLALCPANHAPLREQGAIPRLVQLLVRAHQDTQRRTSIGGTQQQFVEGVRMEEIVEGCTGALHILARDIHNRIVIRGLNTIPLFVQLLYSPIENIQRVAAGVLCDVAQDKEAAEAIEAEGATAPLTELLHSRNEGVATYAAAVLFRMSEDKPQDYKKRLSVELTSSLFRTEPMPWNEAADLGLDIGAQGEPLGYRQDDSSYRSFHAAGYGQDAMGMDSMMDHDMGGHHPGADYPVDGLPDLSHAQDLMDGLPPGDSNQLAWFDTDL

[2] = molecular target: full-length recombinant fascin, thioredoxin fusion protein (mouse, UniProt Q61553 1-493); experiment: co-IP

binding result [1]: binds
B1: GST-E-cadherin fusion protein, cytoplasmic domain (residues 734-884) of mouse E-cadherin (domain or fragment)
chain: not shown

binding result [2]: binds
B2: GST fusion protein of the Armadillo repeat region of beta-catenin (amino acid residues 167-583) (domain or fragment)
chain: VVNKAAVMVHQLSKKEASRHAIMRSPQMVSAIVRTMQNTNDVETARCTAGTLHNLSHHREGLLAIFKSGGIPALVKMLGSPVDSVLFYAITTLHNLLLHQEGAKMAVRLAGGLQKMVALLNKTNVKFLAITTDCLQILAYGNQESKLIILASGGPQALVNIMRTYSYEKLLWTTSRVLKVLSVCSSNKPAIVEAGGMQALGLHLTDSSQRLVQNCLWTLRNLSDAATKQEGMEGLLGTLVQLLGSDDINVVTCAAGILSNLTCNNYKNKMMVCQVGGIEALVRTVLRAGDREDITEPAICALRHLTSRHQEAEMAQNAVRLHYGLPVVVKLLHPPSHWPLIKATVGLIRNLALCPANHAPLREQGAIPRLVQLLVRAHQDTQRRTSIGGTQQQFVEGVRMEEIVEGCTGALHILARD
